Test results from US20230265151A1, “GIP/GLP1 CO-AGONIST COMPOUNDS” (priority 2020, published 2023).
Residue numbers refer to the chain shown, from its start. *1 amine or outer side, *2 acyl side, *3 side chain or, on linkers, in order; H or OH if unused. Where no end group is shown, it is not given here. Side-chain parts run from the residue outwards. [ ]: non-standard residue; d: D form. The star is where a group is joined. Decanoyl(10-(4-HOOC-PhO)) = O=C(O)c1ccc(OCCCCCCCCCC(=O)*)cc1; αMePhe(2-F) = C[C@](N)(Cc1ccccc1F)C(=O)O; γGlu = O=C(O)[C@H](CCC(=O)[*:2])N[*:1]; C14 diacid = O=C(O)CCCCCCCCCCCCC(=O)*; αMeY = C[C@](N)(Cc1ccc(O)cc1)C(=O)O; αMeL = CC(C)C[C@](C)(N)C(=O)O; Orn = NCCC[C@H](N)C(=O)O; AEEA = NCCOCCOCC(=O)O; Aib = CC(C)(N)C(=O)O

B1: Example 10 (peptide)
peptide: YXEGTXTSDXSIXLDXKAQXEFIXXLIEGGKSSGAPPPS
modifications: Aib2, αMeF(2F)6, 4Pal10, αMeL13, Orn16, Aib20, D-Glu24, αMeY25, K17 and K31: K(AEEA2-(10-(4-carboxyphenoxy)decanoyl)), C-terminal NH2
B2: Example 21 (peptide)
peptide: B1 peptide with E21K, K31P
modifications: Aib2, αMeF(2F)6, 4Pal10, αMeL13, Orn16, Aib20, D-Glu24, αMeY25, K17 and K21: K(AEEA2-(γ-Glu)-CO-(CH2)14-CH3), C-terminal NH2
B3: Example 29 (peptide)
peptide: B1 peptide with X10K, K31P
modifications: Aib2, αMeF(2F)6, αMeL13, Orn16, Aib20, D-Glu24, αMeY25, K10 and K17: K(AEEA2-(γ-Glu)-CO-(CH2)14-CH3), C-terminal NH2
B4: Example 28 (peptide)
peptide: B1 peptide with I12K, K31P
modifications: Aib2, αMeF(2F)6, 4Pal10, αMeL13, Orn16, Aib20, D-Glu24, αMeY25, K12 and K17: K(AEEA2-(γ-Glu)-CO-(CH2)12-CO2H), C-terminal NH2
B5: Example 102 (peptide)
peptide: B1 peptide with A18G
modifications: Aib2, αMeF(2F)6, 4Pal10, αMeL13, Orn16, Aib20, D-Glu24, αMeY25, K17 and K31: K(AEEA2-(γ-Glu)-CO-(CH2)12-CO2H), C-terminal NH2
B6: Example 100 (peptide)
peptide: B1 peptide with S11G
modifications: Aib2, αMeF(2F)6, 4Pal10, αMeL13, Orn16, Aib20, D-Glu24, αMeY25, K17 and K31: K(AEEA2-(γ-Glu)-CO-(CH2)12-CO2H), C-terminal NH2
B7: Example 400 (peptide)
peptide: Y[Aib]EGT[αMePhe(2-F)]TSDV[Aib]I[αMeL]LD[Orn]IAQ[Aib]EFIK([AEEA-γGlu-C14 diacid])[αMeY]LIK([AEEA-γGlu-C14 diacid])GGPSSGAPPPS-NH2
modifications: N-terminus assumed
SMILES: CC[C@H](C)[C@H](NC(=O)[C@H](CCCN)NC(=O)[C@H](CC(=O)O)NC(=O)[C@H](CC(C)C)NC(=O)[C@](C)(CC(C)C)NC(=O)[C@@H](NC(=O)C(C)(C)NC(=O)[C@@H](NC(=O)[C@H](CC(=O)O)NC(=O)[C@H](CO)NC(=O)[C@@H](NC(=O)[C@](C)(Cc1ccccc1F)NC(=O)[C@@H](NC(=O)CNC(=O)[C@H](CCC(=O)O)NC(=O)C(C)(C)NC(=O)[C@@H](N)Cc1ccc(O)cc1)[C@@H](C)O)[C@@H](C)O)C(C)C)[C@@H](C)CC)C(=O)N[C@@H](C)C(=O)N[C@@H](CCC(N)=O)C(=O)NC(C)(C)C(=O)N[C@@H](CCC(=O)O)C(=O)N[C@@H](Cc1ccccc1)C(=O)N[C@H](C(=O)N[C@@H](CCCCNC(=O)COCCOCCNC(=O)CC[C@H](NC(=O)CCCCCCCCCCCCC(=O)O)C(=O)O)C(=O)N[C@@](C)(Cc1ccc(O)cc1)C(=O)N[C@@H](CC(C)C)C(=O)N[C@H](C(=O)N[C@@H](CCCCNC(=O)COCCOCCNC(=O)CC[C@H](NC(=O)CCCCCCCCCCCCC(=O)O)C(=O)O)C(=O)NCC(=O)NCC(=O)N1CCC[C@H]1C(=O)N[C@@H](CO)C(=O)N[C@@H](CO)C(=O)NCC(=O)N[C@@H](C)C(=O)N1CCC[C@H]1C(=O)N1CCC[C@H]1C(=O)N1CCC[C@H]1C(=O)N[C@@H](CO)C(N)=O)[C@@H](C)CC)[C@@H](C)CC
B8: Example 460 (peptide)
peptide: YXEGTXTSDXXIXLDXQAQXEFIKXLIKGGPSSGAPPPS
modifications: Y-Aib-EGT-αMeF(2F)-TSD-4Pal-Aib-I-αMeL-LD-Orn-QAQ-Aib-EFIK((2-[2-(2-Amino-ethoxy)-ethoxy]-acetyl)3-(γ-Glu)-CO-(CH2)12-CO2H)-αMeY-LIK((2-[2-(2-Amino-ethoxy)-ethoxy]-acetyl)3-(γ-Glu)-CO-(CH2)12-CO2H)GGPSSGAPPPS-NH2
B9: Example 403 (peptide)
peptide: B8 peptide
modifications: Y-Aib-EGT-αMeF(2F)-TSD-4Pal-Aib-I-αMeL-LD-Orn-QAQ-Aib-EFIK((2-[2-(2-Amino-ethoxy)-ethoxy]-acetyl)2-(γ-Glu)-(10-(4-carboxyphenoxy)decanoyl))-αMeY-LIK((2-[2-(2-Amino-ethoxy)-ethoxy]-acetyl)2-(γ-Glu)-(10-(4-carboxyphenoxy)decanoyl))GGPSSGAPPPS-NH2
B10: Example 411 (peptide)
peptide: B8 peptide
modifications: Y-Aib-EGT-αMeF(2F)-TSD-4Pal-Aib-I-αMeL-LD-Orn-QAQ-Aib-EFIK((2-[2-(2-Amino-ethoxy)-ethoxy]-acetyl)2-(γ-Glu)-CO-(CH2)12-CO2H)-αMeY-LIK((2-[2-(2-Amino-ethoxy)-ethoxy]-acetyl)2-(γ-Glu)-CO-(CH2)12-CO2H)GGPSSGAPPPS-NH2
B11: Example 464 (peptide)
peptide: B8 peptide
modifications: Y-Aib-EGT-αMeF(2F)-TSD-4Pal-Aib-I-αMeL-LD-Orn-QAQ-Aib-EFIK(2-[2-(2-Amino-ethoxy)-ethoxy]-acetyl)3-(γ-Glu)-(10-(4-carboxyphenoxy)decanoyl)-αMeY-LIK((2-[2-(2-Amino-ethoxy)-ethoxy]-acetyl)3-(γ-Glu)-(10-(4-carboxyphenoxy)decanoyl)GGPSSGAPPPS-NH2)

Each binder was assayed against T1, human GIP receptor (human, UniProt P48546 22-466) (assay: cell-based or functional assay).
T1 sequence (looked up): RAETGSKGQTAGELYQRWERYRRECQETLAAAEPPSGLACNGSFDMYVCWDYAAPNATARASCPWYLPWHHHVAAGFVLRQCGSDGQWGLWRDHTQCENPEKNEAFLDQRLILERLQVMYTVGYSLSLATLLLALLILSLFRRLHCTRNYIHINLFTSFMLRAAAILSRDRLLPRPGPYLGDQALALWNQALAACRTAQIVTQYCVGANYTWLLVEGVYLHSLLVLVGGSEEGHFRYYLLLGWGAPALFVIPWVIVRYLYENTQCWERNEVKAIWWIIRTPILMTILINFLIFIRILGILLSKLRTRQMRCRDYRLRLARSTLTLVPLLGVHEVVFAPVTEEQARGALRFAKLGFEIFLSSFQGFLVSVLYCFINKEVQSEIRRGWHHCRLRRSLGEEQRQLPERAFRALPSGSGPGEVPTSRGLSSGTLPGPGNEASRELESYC

Binder | EC50, cAMP [nM] | Emax, cAMP [%]
B1 | 0.0106 | –
B2 | 0.00347 | –
B3 | 0.00252 | –
B4 | 0.0554 | 95.4

These binders were tested against human GLP-1 receptor (human, UniProt P43220 24-463) (assay: cell-based or functional assay).

Binder | EC50, cAMP [nM] | Emax, cAMP [%]
B5 | 19.1 | –
B6 | 11.4 | 111
B2 | 0.00655 | –
B3 | 0.00468 | 100
B4 | 2.65 | –

These binders were tested against human glucagon receptor (human, UniProt P47871 26-477) (assay: cell-based or functional assay).

Binder | EC50, cAMP [nM]
B5 | > 9950
B6 | > 9950
B1 | > 9950
B2 | > 9950
B3 | > 9950
B4 | > 9950

The binders below were run against T2, human GIP receptor (human, UniProt P48546 22-466) (assay: cell-based or functional assay).
T2 sequence (looked up): T1 sequence (looked up)

Binder | cAMP EC50 (1.0% HSA) [nM] | cAMP Emax (1.0% HSA) [%]
Y[Aib]EGT[αMePhe(2-F)]TSDV[Aib]I[αMeL]LD[Orn]IAQ[Aib]EFIK([AEEA-AEEA-AEEA-γGlu-Decanoyl(10-(4-HOOC-PhO))])[αMeY]LIK([AEEA-AEEA-AEEA-γGlu-Decanoyl(10-(4-HOOC-PhO))])GGPSSGAPPPS-NH2 [Example 347] | 7.27 | 84.6

Target: human GLP-1 receptor (human, UniProt P43220 24-463)
Experiment: cell-based or functional assay
Remark: another data set of the same source

Binder | cAMP EC50 (1.0% HSA) [nM]
Y[Aib]EGT[αMePhe(2-F)]TSDV[Aib]I[αMeL]LD[Orn]IAQ[Aib]EFIK([AEEA-AEEA-AEEA-γGlu-Decanoyl(10-(4-HOOC-PhO))])[αMeY]LIK([AEEA-AEEA-AEEA-γGlu-Decanoyl(10-(4-HOOC-PhO))])GGPSSGAPPPS-NH2 [Example 347] | 51.7

These binders were tested against T3, human GIP receptor (human, UniProt P48546 22-466) (assay: cell-based or functional assay).
T3 sequence (looked up): T1 sequence (looked up)

Binder | cAMP EC50 (1.0% HSA) [nM] | cAMP Emax (1.0% HSA) [%]
B7 | 16.7 | –
Y[Aib]EGT[αMePhe(2-F)]TSDV[Aib]I[αMeL]LD[Orn]IAQ[Aib]EFIK([AEEA-γGlu-Decanoyl(10-(4-HOOC-PhO))])[αMeY]LIK([AEEA-γGlu-Decanoyl(10-(4-HOOC-PhO))])GGPSSGAPPPS-NH2 [Example 381] | 28 | –
B8 | 0.506 | –
B9 | 0.711 | 91.7
B10 | 1.09 | –
B11 | 0.316 | 95.5

Target: human GLP-1 receptor (human, UniProt P43220 24-463)
Experiment: cell-based or functional assay
Remark: another data set of the same source

Binder | cAMP EC50 (1.0% HSA) [nM]
B7 | 107
Y[Aib]EGT[αMePhe(2-F)]TSDV[Aib]I[αMeL]LD[Orn]IAQ[Aib]EFIK([AEEA-γGlu-Decanoyl(10-(4-HOOC-PhO))])[αMeY]LIK([AEEA-γGlu-Decanoyl(10-(4-HOOC-PhO))])GGPSSGAPPPS-NH2 [Example 381] | 153
B8 | 6.31
B9 | 7.31
B10 | 11.4
B11 | 4.48
